Where two headings read alike, the source gives them in different places.
B1: CLP-324 (peptide)
peptide: LDSVELAHY
notes: Negative control; also called negative control peptide; PSMA 105-113

Columns and labels:
[1] = biological target: T1, membrane-bound HLA-A0201 molecule on T2 cells (human); experiment: T2 cell HLA-A0201 stabilisation at 125.0 µM peptide, BB7.2 staining, flow cytometry
T1 construct: whole, on cells; also called human MHC class 1 molecule
Description: (§1) Thus, the detection of this specific epitope is indicative of stable membrane-bound HLA-A0201 molecules loaded with peptide.
(§2) T2 cells were propagated in Iscove's complete medium (Iscove's medium supplemented with 10% heat-inactivated bovine serum, 120.0 units per ml of penicillin G sodium, 120 μg per ml of streptomycin sulphate, and 0.35 mg per ml of L-glutamine). The ability of PSMA peptides (Table 1) to bind and stabilize surface HLA-A0201 molecules on T2 cells was determined utilizing a protocol documented in the art (Deng, Y. (1997) J Immunol 158:1507-1515). In essence, 0.5×10⁶ T2 cells were incubated with 125.0 μM of the test peptide in 200.0 μl of serum-free culture medium (Iscove's medium supplemented with 120.0 units per ml of penicillin G sodium, 120.0 μg per ml of streptomycin sulphate and 0.35 mg per ml of L-glutamine) overnight at 37° C. Subsequently, cells were washed twice with Iscove's medium (without bovine serum) to remove free PSMA peptide. To the cell pellet was added 1.0 ml of complete Iscove's medium (supplemented with fetal bovine serum (10% final)) containing 5.0 μg per ml of brefeldin A (Sigma), 12.5 μg per ml of anisomycin (Sigma) and 5.0 μg per ml of cyclohexamide (Sigma). The samples were incubated for 3.0 hr in a 37° C. CO₂ incubator. The cells were subsequently incubated 30 min on ice prior to two washes with ice-cold PBA (phosphate buffered saline (pH 7.2) containing 2.0% bovine serum). 100.0 μl of PBA containing 5.0 μg of monoclonal antibody BB7.2 was added to each test sample. The reaction was allowed to proceed on ice for 45 min. Cells were then washed three times with ice-cold PBA. The binding of BB7.2 was detected via the addition of 100.0 μl of PBA containing 1.0 μg of goat anti-mouse IgG-Fc fluorescein (FITC) conjugate (BETHYL Laboratories Inc.). After a 30 min incubation on ice, cells were twice washed with ice-cold PBA, and twice with ice-cold PBS (pH 7.2). […] Samples were analyzed by Flow Cytometry. Results were expressed in units of Fluorescence Index (FI), calculated by the equation: […]

[2] = biological target: T1, membrane-bound HLA-A0201 molecule on T2 …; experiment: T2 cell HLA-A0201 stabilisation, BB7.2 staining, flow cytometry
Description: as §2, with “The samples were incubated for 3.0 hr in a 37° C. CO₂ incubator. The cells were subsequently incubated 30 min on ice prior to two washes with ice-cold PBA (phosphate buffered saline (pH 7.2) containing 2.0% bovine serum). 100.0 μl of PBA containing 5.0 μg of monoclonal antibody BB7.2 was added to each test sample. The reaction was allowed to proceed on ice for 45 min. Cells were then washed three times with ice-cold PBA.” left out, “Inc.).” for “Inc.). After a 30 min incubation on ice, cells were twice washed with ice-cold PBA, and twice with ice-cold PBS (pH 7.2).”

[3] = biological target: T1, membrane-bound HLA-A0201 molecule on T2 …; experiment: as above; remark: listed apart in the source
Description: as §1, §2

| Binder | Fluorescence Index (FI) [1] | binding result [3] | further results |
| --- | --- | --- | --- |
| LLHETDSAV (also called PSMA 4-12) [CLP-326] | 0.6 FI |  |  |
| MMNDQLMFL (also called CPL-336; PSMA 663-671) [CLP-336] | 3.7 FI |  |  |
| LMYSLVHNL (also called PSMA 469-477) [CLP-333] | 2.7 FI |  |  |
| B1 |  |  | binding result [2]: no binding (tested: 125.0 µM peptide) |
| NMKAFLDEL (also called PSMA 57-65) [CLP-329] |  | no binding |  |
| NLNGAGDPL (also called PSMA 260-268) [CLP-331] |  | no binding |  |
| PMFKYHLTV (also called PSMA 568-576) [CLP-334] |  | no binding |  |
